Experimental data: patent US20040219131A1 (MAXYGEN, published 2004)

T1: interferon-alpha receptor (human, UniProt P17181 28-557; P48551 27-515)
T1 sequence (looked up) 1: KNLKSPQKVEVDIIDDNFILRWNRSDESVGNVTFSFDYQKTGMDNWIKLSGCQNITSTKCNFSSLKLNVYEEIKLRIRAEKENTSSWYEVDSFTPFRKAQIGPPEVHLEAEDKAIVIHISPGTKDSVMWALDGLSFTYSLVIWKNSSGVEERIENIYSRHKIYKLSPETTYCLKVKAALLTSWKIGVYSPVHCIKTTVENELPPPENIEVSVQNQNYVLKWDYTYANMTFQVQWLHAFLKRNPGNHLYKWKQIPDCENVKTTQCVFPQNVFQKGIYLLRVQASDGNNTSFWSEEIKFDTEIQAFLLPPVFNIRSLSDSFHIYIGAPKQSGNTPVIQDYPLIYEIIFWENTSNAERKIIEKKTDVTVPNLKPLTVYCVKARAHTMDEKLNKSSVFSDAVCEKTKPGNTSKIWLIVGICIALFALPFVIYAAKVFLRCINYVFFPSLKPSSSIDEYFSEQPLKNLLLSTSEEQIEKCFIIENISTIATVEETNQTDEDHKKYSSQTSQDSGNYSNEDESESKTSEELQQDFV
T1 sequence (looked up) 2: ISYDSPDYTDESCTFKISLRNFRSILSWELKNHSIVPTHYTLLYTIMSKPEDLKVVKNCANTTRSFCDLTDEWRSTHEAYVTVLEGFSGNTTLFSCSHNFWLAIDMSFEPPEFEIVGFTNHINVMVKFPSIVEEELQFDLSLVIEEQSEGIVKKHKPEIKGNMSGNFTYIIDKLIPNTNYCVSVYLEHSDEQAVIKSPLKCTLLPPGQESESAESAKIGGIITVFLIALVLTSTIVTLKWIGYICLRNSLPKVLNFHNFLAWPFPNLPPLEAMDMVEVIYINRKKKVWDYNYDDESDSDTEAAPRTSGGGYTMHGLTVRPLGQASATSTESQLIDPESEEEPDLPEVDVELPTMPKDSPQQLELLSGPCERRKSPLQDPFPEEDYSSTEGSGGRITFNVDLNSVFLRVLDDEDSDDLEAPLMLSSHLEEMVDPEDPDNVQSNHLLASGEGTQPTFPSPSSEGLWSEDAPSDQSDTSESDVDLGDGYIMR


Columns and labels:
[1] = target: T1, interferon-alpha receptor; test: cell-based or functional assay
[2] = target: T1, interferon-alpha receptor; test: cell-based or functional assay; remark: listed apart in the source

Row | Binder | Antiproliferative activity relative to huIFNα-2b (EC50 huIFN-alpha 2b/EC50 sample), Daudi cell thymidine incorporation assay [1] | Antiviral activity relative to huIFNα-2b (EC50 huIFN-alpha 2b/EC50 sample), EMCV/HuH-7 assay [2]
1 | IFN-alpha Con1 (ligand) CDLPQTHSLGNRRALILLAQMRRISPFSCLKDRHDFGFPQEEFDGNQFQKAQAISVLHEMIQQTFNLFSTKDSSAAWDESLLEKFYTELYQQLNDLEACVIQEVGVEETPLMNVDSILAVKKYFQRITLYLTEKKYSPCAWEVVRAEIMRSFSLSTNLQERLRRKE | ~1.5 fold relative to huIFNα-2b | ~2 fold relative to huIFNα-2b
2 | B9x14 (ligand) CDLPQTHSLGHRRTMMLLAQMRRISLFSCLKDRHDFRFPQEEFDGNHFQKVQAIFLFYEMMQQTFNLFSTKNSSAAWDETLLEKFYIELFQQMNDLEACVMQEVGVEETPLMNVDSILAVRKYFQRITLYLTEKKYSPCAWEVVRAEIMRSFSFSTNLQKRLRRKE | ≤ 0.5 fold relative to huIFNα-2b | ≥ 10 fold relative to huIFNα-2b
3 | B9x12 (ligand) CDLPQTHSLGHRRTMMLLAQMRRISLFSCLKDRHDFRFPQEEFDGNQFQKVQAIFLFYEMMQQTFNLFSTKNSSAAWDETLLEKFYIELFQQMNDLEACVMQEVGVEETPLMNVDSILAVRKYFQRITLYLTKKKYSPCSWEVVRAEIMRSFSFSTNLQKRLRRKE |  | ≥ 10 fold relative to huIFNα-2b
4 | B9x17 (ligand) CDLPQTHSLGHRRTMMLLAQMRRISLFSCLKDRHDFRFPQEEFDGNHFQKTQAISVFHEMMQQTFNLFSTKNSSAAWDETLLEKFYIELFQQMNDLEACVMQEVGVEETPLMNVDSILAVRKYFQRITLYLTEKKYSPCAWEVVRAEIMRSFSFSTNLQKRLRRKE | ≤ 0.5 fold relative to huIFNα-2b | ≥ 10 fold relative to huIFNα-2b
5 | B9x18 (ligand) CDLPQTHSLGHRRTMMLLAQMRRISLFSCLKDRHDFRFPQEEFDGNQFQKTQAISVFHEMMQQTFNLFSTKNSSAAWDETLLEKFYIELFQQMNDLEACVMQEVGVEETPLMNVDSILAVRKYFQRITLYLTEKKYSPCAWEVVRAEIMRSFSFSTNLQKRLRRKE | ≤ 0.25 fold relative to huIFNα-2b | ≥ 10 fold relative to huIFNα-2b
6 | B9x11 (ligand) CDLPQTHSLGHRRTMMLLAQMRRISLFSCLKDRHDFRFPQEEFDGNHFQKVQAIFLFYEMMQQTFNLFSTKNSSAAWDETLLEKFYIELFQQMNDLEACVMQEVGVEETPLMNVDSILAVRKYFQRITLYLTKKKYSPCSWEVVRAEIMRSFSFSTNLQKRLRRKE |  | ≥ 10 fold relative to huIFNα-2b
7 | B9x15 (ligand) CDLPQTHSLGHRRTMMLLAQMRRISLFSCLKDRHDFRFPQEEFDGNQFQKTQAISVFHEMMQQTFNLFSTKNSSAAWDETLLEKFYIELFQQMNDLEACVMQEVGVEETPLMNVDSILAVRKYFQRITLYLTKKKYSPCSWEVVRAEIMRSFSFSTNLQKRLRRKE | ≤ 0.25 fold relative to huIFNα-2b | ≥ 5 fold relative to huIFNα-2b
8 | B9x16 (ligand) CDLPQTHSLGHRRTMMLLAQMRRISLFSCLKDRHDFRFPQEEFDGNQFQKVQAIFLFYEMMQQTFNLFSTKNSSAAWDETLLEKFYIELFQQMNDLEACVMQEVGVEETPLMNVDSILAVRKYFQRITLYLTEKKYSPCAWEVVRAEIMRSFSFSTNLQKRLRRKE | ≤ 0.25 fold relative to huIFNα-2b | ≥ 10 fold relative to huIFNα-2b
9 | B9x27 (ligand) CDLPQTHSLSNRRTLMLMAQMRRISPFSCLKDRHDFGFPEEEFDGHQFQKVQAIFLLYELIQQTFNLFSTKNSSAAWDETLLEKFYIELFQQMNNLEACVIQEVGVEEIALMNVDSILAVRKYFRRITLYLTKKKYSPCSWEVVRAEIMRSFSFSTNLQKRLRRKE | ≤ 0.25 fold relative to huIFNα-2b | ≥ 10 fold relative to huIFNα-2b
10 | B9x22 (ligand) CDLPQTHSLSNRRTLMLMAQMRRISPFSCLKDRHDFGFPEEEFDGHHFQKTQAISVLHELIQQTFNLFSTKNSSAAWDETLLEKFYIELFQQMNNLEACVIQEVGVEEIALMNVDSILAVRKYFRRITLYLTEKKYSPCAWEVVRAEIMRSFSFSTNLQKRLRRKE | ≤ 0.5 fold relative to huIFNα-2b | ≥ 10 fold relative to huIFNα-2b
11 | B9x21 (ligand) CDLPQTHSLSNRRTLMLMAQMRRISPFSCLKDRHDFGFPEEEFDGHQFQKTQAISVLHELIQQTFNLFSTKNSSAAWDETLLEKFYIELFQQMNNLEACVIQEVGVEEIALMNVDSILAVRKYFRRITLYLTEKKYSPCAWEVVRAEIMRSFSFSTNLQKRLRRKE | ≤ 0.5 fold relative to huIFNα-2b | ≥ 10 fold relative to huIFNα-2b
12 | B9x28 (ligand) CDLPQTHSLSNRRTLMLMAQMRRISPFSCLKDRHDFGFPEEEFDGHHFQKVQAIFLLYELIQQTFNLFSTKNSSAAWDETLLEKFYIELFQQMNNLEACVIQEVGVEEIALMNVDSILAVRKYFRRITLYLTKKKYSPCSWEVVRAEIMRSFSFSTNLQKRLRRKE |  | ≥ 10 fold relative to huIFNα-2b
13 | B9x25 (ligand) CDLPQTHSLSNRRTLMLMAQMRRISPFSCLKDRHDFGFPEEEFDGHHFQKVQAIFLLYELIQQTFNLFSTKNSSAAWDETLLEKFYIELFQQMNNLEACVIQEVGVEEIALMNVDSILAVRKYFRRITLYLTEKKYSPCAWEVVRAEIMRSFSFSTNLQKRLRRKE | ≤ 0.5 fold relative to huIFNα-2b | ≥ 10 fold relative to huIFNα-2b
14 | B9x26 (ligand) CDLPQTHSLSNRRTLMLMAQMRRISPFSCLKDRHDFGFPEEEFDGHHFQKTQAISVLHELIQQTFNLFSTKNSSAAWDETLLEKFYIELFQQMNNLEACVIQEVGVEEIALMNVDSILAVRKYFRRITLYLTKKKYSPCSWEVVRAEIMRSFSFSTNLQKRLRRKE | ≤ 0.25 fold relative to huIFNα-2b | ≥ 5 fold relative to huIFNα-2b
15 | B9x24 (ligand) CDLPQTHSLSNRRTLMLMAQMRRISPFSCLKDRHDFGFPEEEFDGHQFQKTQAISVLHELIQQTFNLFSTKNSSAAWDETLLEKFYIELFQQMNNLEACVIQEVGVEEIALMNVDSILAVRKYFRRITLYLTKKKYSPCSWEVVRAEIMRSFSFSTNLQKRLRRKE | ≤ 0.25 fold relative to huIFNα-2b | ≥ 5 fold relative to huIFNα-2b
16 | B9x23 (ligand) CDLPQTHSLSNRRTLMLMAQMRRISPFSCLKDRHDFGFPEEEFDGHQFQKVQAIFLLYELIQQTFNLFSTKNSSAAWDETLLEKFYIELFQQMNNLEACVIQEVGVEEIALMNVDSILAVRKYFRRITLYLTEKKYSPCAWEVVRAEIMRSFSFSTNLQKRLRRKE | ≤ 0.5 fold relative to huIFNα-2b | ≥ 10 fold relative to huIFNα-2b
17 | 25Ep05 (ligand) CDLPQTHSLSNRRTLMLMAQMRRISPFSCLKDRHDFGFPEEEFDGHQFQKTQAISVLHELIQQTFNLFSTKDSSAAWDETLLEKFYIELFQQMNDLEACVIQEVGVEEIALMNVDSILAVRKYFRRITLYLTEKKYSPCAWEVVRAEIMRSFSLSTNLQESLRSKE |  | ≥ 2.5 fold relative to huIFNα-2b
